Article PMC7591262

Molecular target: Wtf4^antidote-mCherry (S. kambucha)
Experiment: FRET or BRET

**Q.** For Wtf4^poison-GFP (natural protein), which FRET (acceptor photobleaching) is on record?
**A.** Its FRET (acceptor photobleaching) is 40%.
